{
  "source": "patent US20120100582A1",
  "about": "(DSM IP ASSETS B V, published 2012)",
  "proteins": {"B1": {"name": "APLE L43D variant (enzyme)", "chain": "GQPASPPVVDTAQGRVLGKYVSLEGLAQPVAVFLGVPFAKPPDGSLRFAPPQPAEPWSFVKNTTSYPPMCCQEPIGGQMLSDLFTNRKERLIPEFSEDCLYLNIYTPADLTKRGRLPVMVWIHGGGLVVGGASTYDGLALAAHENVVVVAIQYRLGIWGFFSTGDEHSRGNWGHLDQVAALHWVQENIANFGGDPGSVTIFGESAGGESVSVLVLSPLAKNLFHRAISESGVAFTAGLVRKDMKAAAKQIAVLAGCKTTTSAVFVHCLRQKSEDELLDLTLKMKFFALDLHGDPRESHPFLTTVVDGVLLPKMPEEILAEKDFNTVPYIVGINKQEFGWLLPTMMGFPLSEGKLDQKTATSLLWKSYPIANIPEELTPVATDKYLGGTDDPVKKKDLFLDLMGDVVFGVPSVTVARQHRDAGAPTYMYEFQYRPSFSSDKKPKTVIGDHGDEIFSVFGFPLLKGDAPEEEVSLSKTVMKFWANFARSGNPNGEGLPHWPMYDQEEGYLQIGVNTQAAKRLKGEEVAFWNDLLSKEAAKKPPKIKHAEL"}, "B2": {"name": "APLE with V263D mutation (enzyme)", "chain": "B1 chain with D43L, V263D", "notes": "Monomeric mutant, tested in E. coli cleared lysate; also called APLE-V263D; mutant, monomeric APLE"}, "B3": {"name": "PLE5 with V263D mutation (enzyme)", "chain": "B1 chain with D43L, E73D, I75V, G76A, L80T, R87G, V263D, F459A, L461F, K463R", "notes": "Monomeric mutant; also called PLE5-V263D"}, "B4": {"name": "PLE3 with V263D mutation (enzyme)", "chain": "B1 chain with D43L, V263D, F285P, F286L, A287T", "notes": "Monomeric mutant; also called PLE3-V263D"}, "B5": {"name": "PICE with V263D mutation (enzyme)", "chain": "GQPASPPVVDTAQGRVLGKYVSLEGLAQPVAVFLGVPFAKPPLGSLRFAPPQPAEPWSFVKNTTSYPPMCCQDPVAGQMTSDLFTNGKERLIPEFSEDCLYLNIYTPADLTKRGRLPVMVWIHGGGLVVGGASTYDGLALAAHENVVVVAIQYRLGIWGFFSTGDEHSRGNWGHLDQVAALHWVQENIANFGGDTGSVTIFGESAGGESVSVLVLSPLAKNLFHRAISESGVALTAGLVRKDMKAAAKQIAVLAGCKTTTSADFVHCLRQKSEDELLDLTLKMKFLTLDLHGDPRESHPFLPTVVDGVLLPKMPEEILAEKDFNTVPYIVGINKQEFGWLLPTMMGFPLSEGKLDQKTATSLLWKSFPITNIPEELTPVATDKYLGGTDDPVKKKDLFLDLMGDVVFGVPSVTVARQHRDAGAPTYMYEFQYRPSFSSDKKPKTVIGDHGDEIFSVFGFPLLKGDAPEEEVSLSKTVMKFWANFARSGNPNGEGLPHWPMYDQEEGYLQIGVNTQAAKRLKGEEVAFWNDLLSKEAAKKPPKIKHAEL", "notes": "Monomeric mutant; also called PICE-V263D"}, "B6": {"name": "PLE4 with V263D mutation (enzyme)", "chain": "B5 chain with T195P, L234F, F285P, P302T, F367Y, T370A, F459A, L461F, K463R", "notes": "Monomeric mutant; also called PLE4-V263D"}, "B7": {"name": "γ-PLE with V263D mutation (enzyme)", "chain": "GQPASPPVVDTAQGRVLGKYVSLEGLAQPVAVFLGVPFAKPPLGSLRFAPPQPAEPWSFVKNTTSYPPMCCQDPVVEQMTSDLFTNGKERLTLEFSEDCLYLNIYTPADLTKRGRLPVMVWIHGGGLVLGGAPMYDGVVLAAHENVVVVAIQYRLGIWGFFSTGDEHSRGNWGHLDQVAALHWVQENIANFGGDPGSVTIFGESAGGESVSVLVLSPLAKNLFHRAISESGVALTVALVRKDMKAAAKQIAVLAGCKTTTSADFVHCLRQKSEDELLDLTLKMKFLTLDFHGDQRESHPFLPTVVDGVLLPKMPEEILAEKDFNTVPYIVGINKQEFGWLLPTMMGFPLSEGKLDQKTATSLLWKSYPIANIPEELTPVATDKYLGGTDDPVKKKDLFLDLMGDVVFGVPSVTVARQHRDAGAPTYMYEFQYRPSFSSDKKPKTVIGDHGDEIFSVFGFPLLKGDAPEEEVSLSKTVMKFWANFARSGNPNGEGLPHWPMYDQEEGYLQIGVNTQAAKRLKGEEVAFWNDLLSKEAAKKPPKIKHAEL", "notes": "Monomeric mutant; also called γPLE-V263D"}, "B8": {"name": "PLE2 with V263D mutation (enzyme)", "chain": "B7 chain with F459A, L461F, K463R", "notes": "Monomeric mutant; also called PLE2-V263D"}, "B9": {"name": "APLE wild-type (enzyme)", "chain": "B1 chain with D43L", "notes": "Homotrimer on native gel; also called pig liver esterase"}, "B10": {"name": "γPLE wild-type (enzyme)", "chain": "B7 chain with D263V", "notes": "Tested in E. coli cleared lysate; Homotrimer; also called gamma-PLE"}},
  "note": "Changes are numbered by the printed parent chain. Names may count otherwise.",
  "data": [
    {"biological_target": "the molecule itself", "assay": "method not named, self-association", "values": [
      {"protein": "B1", "binding result": "no binding"}
    ]},
    {"biological_target": "the molecule itself", "assay": "blue native gel electrophoresis, self-association", "protocol": "Blue native gel electrophoresis (BN-PAGE) of bacterial lysates containing APLE was performed according to the method described by Reisinger and Eichacker (2006), “Analysis of membrane protein complexes by blue native PAGE”, Proteomics 6 Suppl 2, 6-15, with the following modifications. Aliquots containing 200 μg of soluble proteins were diluted with 10 mM Tris/HCl pH 7.4 to a final volume of 95 μl. Five μl of loading buffer was added to the sample before applying them on an 8-16% linear gradient gel. Gradient gels (16×20 cm) were created with the help of a Bio-Rad Gradient Former model 485 (Bio-Rad Laboratories, Vienna, Austria). Electrophoresis was performed at a constant current of 24 mA per gel at 4° C. After electrophoresis, gels were incubated in 0.1 M potassium phosphate buffer, pH 7.0, for 20 min at room temperature. For the in-gel-detection of esterase activity, the substrate fluorescein diacetate (FDA) was dissolved in acetone [4 mg/ml] and applied on a Biodyne® A membrane ([…], 16×20 cm) (Pall Life Science, Michigan, USA). After evaporation of acetone, the membrane was brought in close contact with the gel which was placed on a glass plate. The gel-membrane sandwich was incubated at 37° C. for 30 min before detection of fluorescent bands.\nEsterase activity was visualized herein through staining with fluorescein resulting from hydrolysis of fluorescein diacetate (FDA). All 7 wild-type enzymes are trimers of about the same height on the native gel, whereas the V263D mutants show bands on the lower third of the gel. Multiple bands were excised and analyzed on an SDS-PAGE gel. Multiple bands result in one clear band at the size of about 58 kDa (data not shown). It is assumed that these bands result from different conformations of the same monomer.", "values": [
      {"protein": "B2", "binding result": "no binding"},
      {"protein": "B3", "binding result": "no binding"},
      {"protein": "B4", "binding result": "no binding"},
      {"protein": "B5", "binding result": "no binding"},
      {"protein": "B6", "binding result": "no binding"},
      {"protein": "B7", "binding result": "no binding"},
      {"protein": "B8", "binding result": "no binding"}
    ]},
    {"biological_target": "the molecule itself", "assay": "blue native gel electrophoresis, self-association (homotrimer)", "protocol": "Blue native gel electrophoresis (BN-PAGE) of bacterial lysates containing APLE was performed according to the method described by Reisinger and Eichacker (2006), “Analysis of membrane protein complexes by blue native PAGE”, Proteomics 6 Suppl 2, 6-15, with the following modifications. Aliquots containing 200 μg of soluble proteins were diluted with 10 mM Tris/HCl pH 7.4 to a final volume of 95 μl. Five μl of loading buffer was added to the sample before applying them on an 8-16% linear gradient gel. Gradient gels (16×20 cm) were created with the help of a Bio-Rad Gradient Former model 485 (Bio-Rad Laboratories, Vienna, Austria). Electrophoresis was performed at a constant current of 24 mA per gel at 4° C. After electrophoresis, gels were incubated in 0.1 M potassium phosphate buffer, pH 7.0, for 20 min at room temperature. For the in-gel-detection of esterase activity, the substrate fluorescein diacetate (FDA) was dissolved in acetone [4 mg/ml] and applied on a Biodyne® A membrane ([…], 16×20 cm) (Pall Life Science, Michigan, USA). After evaporation of acetone, the membrane was brought in close contact with the gel which was placed on a glass plate. […]\nEsterase activity was visualized herein through staining with fluorescein resulting from hydrolysis of fluorescein diacetate (FDA). […] Multiple bands were excised and analyzed on an SDS-PAGE gel. […]", "values": [
      {"protein": "B9", "binding result": "binds"},
      {"protein": "B10", "binding result": "binds"}
    ]}
  ]
}
